Results as given in patent US20200338146A1.

Legend:
[1] = target: AAV2 virion expressing GFP (AAV2-CMV-GFP) (AAV2) (UniProt P03135); experiment: cell-based or functional assay
[2] = target: AAV2.5T.LSV1 virion expressing GFP (AAV2.5T.LSV1-CMV-GFP); experiment: cell-based or functional assay

“pooled human IgG antibodies (Gammagard IVIG)” was tested, and the IC50 of inhibition of GFP expression in transduced 293T cells (reciprocal dilution of the pooled human IgG antibody sample at which GFP expression is reduced by 50%) (reciprocal dilution) [1] was 104 and the IC50 of inhibition of GFP expression in transduced 293T cells (reciprocal dilution of the pooled human IgG antibody sample at which GFP expression is reduced by 50%) (reciprocal dilution) [2] was 9.3.
